Legend:
[1] = biological target: Nanoluc_DDB1 (N-terminal Nanoluc luciferase, G4S linker, DDB1 (FL)) (UniProt Q16531); assay: NanoBRET in HEK293T cells, 10 µM compound Example 3-64; class A = greater than 4-fold increase
[2] = biological target: Nanoluc_DDB1 (N-terminal Nanoluc luciferase, G4S linker, DDB1 (FL)) (UniProt Q16531); assay: NanoBRET in HEK293T cells, 10 µM compound Example 3-25; class B = 3-4 fold increase
[3] = biological target: Nanoluc_DDB1 (N-terminal Nanoluc luciferase, G4S linker, DDB1 (FL)) (UniProt Q16531); assay: NanoBRET in HEK293T cells, 10 µM compound Example 3-47; class A = greater than 4-fold increase
[4] = biological target: Nanoluc_DDB1 (N-terminal Nanoluc luciferase, G4S linker, DDB1 (FL)) (UniProt Q16531); assay: NanoBRET in HEK293T cells, 10-point titration of compound Example 3-43; class A = EC50<=0.25 µM
[5] = biological target: Nanoluc_DDB1 (N-terminal Nanoluc luciferase, G4S linker, DDB1 (FL)) (UniProt Q16531); assay: NanoBRET in HEK293T cells, 10-point titration of compound Example 3-66; class A = EC50<=0.25 µM
[6] = biological target: Nanoluc_DDB1 (N-terminal Nanoluc luciferase, G4S linker, DDB1 (FL)) (UniProt Q16531); assay: NanoBRET in HEK293T cells, 10-point titration of compound Example 3-35; class A = EC50<=0.25 µM
[7] = biological target: Nanoluc_DDB1 (N-terminal Nanoluc luciferase, G4S linker, DDB1 (FL)) (UniProt Q16531); assay: NanoBRET in HEK293T cells, 10 µM compound Example 3-27; class B = 3-4 fold increase
[8] = biological target: Nanoluc_DDB1 (N-terminal Nanoluc luciferase, G4S linker, DDB1 (FL)) (UniProt Q16531); assay: NanoBRET in HEK293T cells, 10 µM compound Example 3-33; class A = greater than 4-fold increase
[9] = biological target: Nanoluc_DDB1 (N-terminal Nanoluc luciferase, G4S linker, DDB1 (FL)) (UniProt Q16531); assay: NanoBRET in HEK293T cells, 10 µM compound Example 3-9; class A = greater than 4-fold increase
[10] = biological target: Nanoluc_DDB1 (N-terminal Nanoluc luciferase, G4S linker, DDB1 (FL)) (UniProt Q16531); assay: NanoBRET in HEK293T cells, 10-point titration of compound Example 3-44; class A = EC50<=0.25 µM
[11] = biological target: Nanoluc_DDB1 (N-terminal Nanoluc luciferase, G4S linker, DDB1 (FL)) (UniProt Q16531); assay: NanoBRET in HEK293T cells, 10-point titration of compound Example 3-64; class E = >10 µM
[12] = biological target: Nanoluc_DDB1 (N-terminal Nanoluc luciferase, G4S linker, DDB1 (FL)) (UniProt Q16531); assay: NanoBRET in HEK293T cells, 10 µM compound Example 3-42; class A = greater than 4-fold increase
[13] = biological target: Nanoluc_DDB1 (N-terminal Nanoluc luciferase, G4S linker, DDB1 (FL)) (UniProt Q16531); assay: NanoBRET in HEK293T cells, 10 µM compound Example 3-20; class C = 2-3 fold increase
[14] = biological target: Nanoluc_DDB1 (N-terminal Nanoluc luciferase, G4S linker, DDB1 (FL)) (UniProt Q16531); assay: NanoBRET in HEK293T cells, 10 µM compound Example 3-19; class A = greater than 4-fold increase
[15] = biological target: Nanoluc_DDB1 (N-terminal Nanoluc luciferase, G4S linker, DDB1 (FL)) (UniProt Q16531); assay: NanoBRET in HEK293T cells, 10 µM compound Example 3-38; class B = 3-4 fold increase
[16] = biological target: Nanoluc_DDB1 (N-terminal Nanoluc luciferase, G4S linker, DDB1 (FL)) (UniProt Q16531); assay: NanoBRET in HEK293T cells, 10-point titration of compound Example 3-62; class A = EC50<=0.25 µM
[17] = biological target: Nanoluc_DDB1 (N-terminal Nanoluc luciferase, G4S linker, DDB1 (FL)) (UniProt Q16531); assay: NanoBRET in HEK293T cells, 10 µM compound Example 3-45; class A = greater than 4-fold increase
[18] = biological target: Nanoluc_DDB1 (N-terminal Nanoluc luciferase, G4S linker, DDB1 (FL)) (UniProt Q16531); assay: NanoBRET in HEK293T cells, 10 µM compound Example 3-43; class A = greater than 4-fold increase
[19] = biological target: Nanoluc_DDB1 (N-terminal Nanoluc luciferase, G4S linker, DDB1 (FL)) (UniProt Q16531); assay: NanoBRET in HEK293T cells, 10-point titration of compound Example 3-63; class E = >10 µM
[20] = biological target: Nanoluc_DDB1 (N-terminal Nanoluc luciferase, G4S linker, DDB1 (FL)) (UniProt Q16531); assay: NanoBRET in HEK293T cells, 10 µM compound Example 3-16; class C = 2-3 fold increase
[21] = biological target: Nanoluc_DDB1 (N-terminal Nanoluc luciferase, G4S linker, DDB1 (FL)) (UniProt Q16531); assay: NanoBRET in HEK293T cells, 10-point titration of compound Example 3-50; class A = EC50<=0.25 µM
[22] = biological target: Nanoluc_DDB1 (N-terminal Nanoluc luciferase, G4S linker, DDB1 (FL)) (UniProt Q16531); assay: NanoBRET in HEK293T cells, 10 µM compound Example 3-46; class B = 3-4 fold increase
[23] = biological target: Nanoluc_DDB1 (N-terminal Nanoluc luciferase, G4S linker, DDB1 (FL)) (UniProt Q16531); assay: NanoBRET in HEK293T cells, 10 µM compound Example 3-39; class B = 3-4 fold increase
[24] = biological target: Nanoluc_DDB1 (N-terminal Nanoluc luciferase, G4S linker, DDB1 (FL)) (UniProt Q16531); assay: NanoBRET in HEK293T cells, 10 µM compound Example 3-55; class B = 3-4 fold increase
[25] = biological target: Nanoluc_DDB1 (N-terminal Nanoluc luciferase, G4S linker, DDB1 (FL)) (UniProt Q16531); assay: NanoBRET in HEK293T cells, 10-point titration of compound Example 3-1; class A = EC50<=0.25 µM

Nanoluc_DDB1 (N-terminal Nanoluc luciferase, G4S linker, DDB1 (FL)), sequence (Q16531 other isoform, or with tags, fused parts or gaps): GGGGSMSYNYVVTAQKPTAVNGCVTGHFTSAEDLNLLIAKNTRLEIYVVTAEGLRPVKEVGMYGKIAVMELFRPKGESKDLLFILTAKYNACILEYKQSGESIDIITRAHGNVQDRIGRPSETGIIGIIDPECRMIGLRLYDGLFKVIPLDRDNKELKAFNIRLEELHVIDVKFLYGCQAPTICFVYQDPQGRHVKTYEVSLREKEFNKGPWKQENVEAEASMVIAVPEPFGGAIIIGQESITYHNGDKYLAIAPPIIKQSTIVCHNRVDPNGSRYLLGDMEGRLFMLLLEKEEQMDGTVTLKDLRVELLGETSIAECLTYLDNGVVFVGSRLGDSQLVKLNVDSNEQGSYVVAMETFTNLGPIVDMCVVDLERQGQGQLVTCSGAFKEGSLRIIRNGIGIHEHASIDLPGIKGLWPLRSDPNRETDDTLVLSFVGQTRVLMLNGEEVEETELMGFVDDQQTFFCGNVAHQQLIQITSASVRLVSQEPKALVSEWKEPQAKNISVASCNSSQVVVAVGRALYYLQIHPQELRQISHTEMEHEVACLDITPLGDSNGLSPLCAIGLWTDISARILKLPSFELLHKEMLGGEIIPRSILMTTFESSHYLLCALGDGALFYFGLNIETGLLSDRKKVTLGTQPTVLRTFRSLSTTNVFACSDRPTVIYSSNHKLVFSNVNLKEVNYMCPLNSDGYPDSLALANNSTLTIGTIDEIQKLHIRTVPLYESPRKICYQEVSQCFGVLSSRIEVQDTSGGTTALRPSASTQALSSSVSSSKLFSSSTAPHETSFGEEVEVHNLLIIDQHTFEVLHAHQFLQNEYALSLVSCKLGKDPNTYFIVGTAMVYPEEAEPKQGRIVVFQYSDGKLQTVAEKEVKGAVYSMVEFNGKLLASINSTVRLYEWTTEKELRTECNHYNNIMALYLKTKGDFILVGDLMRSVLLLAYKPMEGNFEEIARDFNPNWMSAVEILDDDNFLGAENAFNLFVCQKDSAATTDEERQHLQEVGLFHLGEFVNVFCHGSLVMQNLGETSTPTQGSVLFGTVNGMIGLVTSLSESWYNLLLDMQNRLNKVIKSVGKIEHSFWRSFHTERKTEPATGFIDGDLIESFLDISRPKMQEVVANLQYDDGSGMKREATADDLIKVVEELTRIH

HaloTag_CDK12 (N-terminal HaloTag, G4S linker, CDK12 (713-1052)) (from UniProt Q9NYV4 713-1052) (enzyme)
3 to 4 fold: NanoBRET fold increase [2] | NanoBRET fold increase [7] | NanoBRET fold increase [15] | NanoBRET fold increase [22] | NanoBRET fold increase [23] | NanoBRET fold increase [24]
> 4 fold: NanoBRET fold increase [1] | NanoBRET fold increase [3] | NanoBRET fold increase [8] | NanoBRET fold increase [9] | NanoBRET fold increase [12] | NanoBRET fold increase [14] | NanoBRET fold increase [17] | NanoBRET fold increase [18]
2 to 3 fold: NanoBRET fold increase [13] | NanoBRET fold increase [20]
> 10 µM: EC50 [11] | EC50 [19]
< 0.25 µM: EC50 [4] | EC50 [5] | EC50 [6] | EC50 [10] | EC50 [16] | EC50 [21] | EC50 [25]
